Experimental data as given in article PMC3762362.

Experiments:
[1] = molecular target: SNAP-tagged S. cerevisiae Arp2/3 complex labeled with Dy649 (Arp2/3-SNAP649) (S. cerevisiae) (UniProt P32381)
[2] = molecular target: SNAP-tagged S. cerevisiae Arp2/3 complex labeled with Dy649 (Arp2/3-SNAP649) (S. cerevisiae) (UniProt P32381); remark: listed apart in the source
[3] = molecular target: SNAP-tagged S. cerevisiae Arp2/3 complex labeled with Dy649 (Arp2/3-SNAP649) (S. cerevisiae) (UniProt P32381); experiment: colocalization single molecule spectroscopy (CoSMoS, TIRF); biotinylated AF488-actin filaments tethered to the slide; 5 nM Arp2/3-SNAP649, 5 nM Cy3-diVCA construct and 1 μM actin (10% AF488 labeled) in solution; TIRF buffer; time resolution 0.15 s
[4] = molecular target: SNAP-tagged S. cerevisiae Arp2/3 complex labeled with Dy649 and biotin (Arp2/3-SNAP649-biotin) (S. cerevisiae) (UniProt P32381); experiment: colocalization single molecule spectroscopy (CoSMoS, TIRF); Arp2/3-SNAP649-biotin tethered to the slide through streptavidin; 0.1–2 nM Cy3-diVCA construct and 1 μM actin (10% AF488 labeled) in solution; periods with no filament colocalized; TIRF buffer (50 mM KCl, 1 mM MgCl2, 1 mM EGTA, 10 mM imidazole pH 7.2)
[5] = molecular target: VVCA-A462C-AF594 (N-WASP 393–505, C431A, A462C, AlexaFluor 594 labeled) (human) (UniProt O00401); experiment: fluorescence polarisation; fluorescence anisotropy, direct binding of 20 nM VVCA-A462C-AF594 to bovine Arp2/3 complex; no actin; 10 min incubation
[6] = molecular target: Endogenous bovine Arp2/3 complex (bovine (endogenous in calf thymus)) (UniProt A7MB62); experiment: fluorescence polarisation; fluorescence anisotropy competition: VVCA-A462C-AF594 reporter with 200 nM bovine Arp2/3 complex and increasing unlabeled GST-VCA, GST-VVCA or GST-VCA-C*; fit to a competition-binding isotherm
[7] = molecular target: VCA-AF594 (N-WASP VCA 430–505, S430C, C431A, AlexaFluor 594 labeled) (human) (UniProt O00401); experiment: fluorescence polarisation; fluorescence anisotropy of 10 nM VCA-AF594 with increasing non-polymerizable Drosophila 5C actin or yeast Arp2/3 complex; single site binding isotherm
[8] = molecular target: Surface-tethered actin filaments (10% AF488 labeled, 1% biotinylated) (rabbit) (UniProt P68135); experiment: colocalization single molecule spectroscopy (CoSMoS, TIRF); biotinylated AF488-actin filaments tethered to the slide; Arp2/3-SNAP649 and 1 μM actin in solution, no VCA; TIRF buffer; rate constant per filament subunit
[9] = molecular target: Surface-tethered actin filaments (10% AF488 labeled, 1% biotinylated) (rabbit) (UniProt P68135); experiment: colocalization single molecule spectroscopy (CoSMoS, TIRF); biotinylated AF488-actin filaments tethered to the slide; 5 nM Arp2/3-SNAP649, 5 nM Cy3-diVCA construct and 1 μM actin (10% AF488 labeled) in solution; TIRF buffer; time resolution 0.15 s

Cy3-diVCA wild-type (N-WASP VCA covalently dimerized with a Cy3 bis-maleimide), sequence (O00401 other isoform, or with tags, fused parts or gaps): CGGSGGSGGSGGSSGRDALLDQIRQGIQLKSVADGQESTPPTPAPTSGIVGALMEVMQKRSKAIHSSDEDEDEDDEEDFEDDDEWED
Cy3-diVCA-A* (Δ486–488), sequence (O00401 other isoform, or with tags, fused parts or gaps mutant): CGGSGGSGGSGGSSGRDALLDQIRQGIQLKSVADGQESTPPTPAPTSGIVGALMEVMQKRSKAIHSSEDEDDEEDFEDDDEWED
VVCA-A462C-AF594 (N-WASP 393–505, C431A, A462C, AlexaFluor 594 labeled) (human), sequence (O00401 393-505 C431A/A462C): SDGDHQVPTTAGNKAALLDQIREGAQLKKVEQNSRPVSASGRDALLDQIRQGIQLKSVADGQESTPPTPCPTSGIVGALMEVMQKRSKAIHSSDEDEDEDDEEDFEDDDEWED
VCA-AF594 (N-WASP VCA 430–505, S430C, C431A, AlexaFluor 594 labeled) (human), sequence (O00401 430-505 S430C/C431A): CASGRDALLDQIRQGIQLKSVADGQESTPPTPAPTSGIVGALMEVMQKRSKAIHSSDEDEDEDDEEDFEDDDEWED

kB, second order rate constant for branch formation (per mother filament subunit), single-molecule TIRF [1] [M⁻¹ s⁻¹] | fold stimulation of Arp2/3 complex-dependent nucleation in bulk pyrene-actin assays (barbed ends at the midpoint; 25 nM diVCA construct, 10 nM Arp2/3-SNAP) [2] [fold] | kV*, rate constant for diVCA release from the nascent branch (filament-bound Arp2/3 complex) [3] [s⁻¹] | τV*, mean lifetime of diVCA on nascent branches (filament-bound Arp2/3 complex) [3] [s] | kon [4] [M⁻¹ s⁻¹] | τV1, first characteristic lifetime of diVCA on isolated Arp2/3 complexes [4] [s] | τV2, second characteristic lifetime of diVCA on isolated Arp2/3 complexes [4] [s] | Substance | fAV, fraction of Arp2/3 complexes that bind filament sides coincident with diVCA [3] | also measured
160 | 2 | 0.04 | 0.7 | 1.6e+08 | 8 | 61 | Cy3-diVCA wild-type (N-WASP VCA covalently dimerized with a Cy3 bis-maleimide) (from UniProt O00401 432-505) (domain or fragment) | 0.83 | Kd [4]: < 2 nM; percent of tethered Arp2/3 complexes observed to bind diVCA [4]: > 80%
100 | 1.4 | 0.022 | 0.7 | 1.6e+08 | 40 | 250 | Cy3-diVCA-A* (Δ486–488) (from UniProt O00401 432-505) (domain or fragment) | 0.7 | 
200 | 6 | 0.05 | 0.37 | 6e+07 | 2.4 | 14 | Cy3-diVCA-C* (I467A) (from UniProt O00401 432-505) (domain or fragment) | 0.59 | 
320 | 10 | 0.08 | 0.54 | 7e+07 | 3.6 | 56 | Cy3-diVCA-V* (D435S/A436D) (from UniProt O00401 432-505) (domain or fragment) | 0.7 | 
 |  |  |  |  |  |  | Endogenous bovine Arp2/3 complex (from UniProt A7MB62 1-394; P61157 1-418) |  | Kd [5]: 150 nM
 |  |  |  |  |  |  | GST-VCA-C* (GST fusion of N-WASP VCA with the C* mutation) (from UniProt O00401 432-505) (domain or fragment) |  | fold weaker affinity than GST-VCA [6]: 4 fold
 |  |  |  |  |  |  | S. cerevisiae Arp2/3 complex purified from commercial baker's yeast (from UniProt P32381 1-391; P47117 1-449; Q05933 1-178) |  | Kd [7]: 65 nM
 |  |  |  |  |  |  | SNAP-tagged S. cerevisiae Arp2/3 complex labeled with Dy649 (Arp2/3-SNAP649) (from UniProt P32381 1-391; P47117 1-449; Q05933 1-178) |  | kon [8]: 20000 M⁻¹ s⁻¹; kA+ (binding to filament sides, per filament subunit) with diVCA A* present [9]: 8000 M⁻¹ s⁻¹; kA+ (binding to filament sides, per filament subunit) with diVCA C* present [9]: 20000 M⁻¹ s⁻¹; kA+ (binding to filament sides, per filament subunit) with diVCA V* present [9]: 13000 M⁻¹ s⁻¹; kA+ (binding to filament sides, per filament subunit) with diVCA w.t. present [9]: 21000 M⁻¹ s⁻¹
